The series is described as follows: yeast display, Sf9 membrane polyspecificity reagent, FACS + sequencing; frameworks hold sequencing errors. The essentials:
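Galactose-induced (36–48 hours) yeast carrying a synthetic nanobody display library were exposed to 10% biotinylated, detergent-solubilized Sf9 membrane reagent at 4 °C for 1 hour. FACS followed streptavidin microbead enrichment, using low and high (top ~1%) gates for expression (anti-HA) and reagent binding (streptavidin). Colony PCR, MiSeq 2 × 250 sequencing and CDR-length filtering followed. Labels for polyreactivity reflect the gate of origin.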
Consider “QDQLVESGGGLVQAGGSLRLSCAASGFTFYPYAMGWYRQAPGKERELVAAITYIGSTYYADSVKGRFTISRDNAKNTVYLQMNSLKPEDTAVYYCAAVKVFLGLGYDYWGQGTQVTVSS”, for which the “polyreactivity (PSR sort gate)” value is on record as “low polyreactivity”.
As to “QVQLVESGGGLVQAGGSLRLSCAASGRTFAWYAMGWYRQAPGKERELVAAISNVGSTYYADSVKGRFTISRDNAKNTVYLQMNSLKPEDTAVYYCNADAVSTDGREYWGQGTQVTVSS”, the “polyreactivity (PSR sort gate)” value is on record as “low polyreactivity”.
The value for “QVQLVESGGCLVQAGGSLRLSCAASGSTFRHYAMGWYRQQPGKERELVASISKSAGRTYYADSVKGRFTISRDIAKNTVNLQMNSLKPEDTAVYYCAAYRIHVYPAGLAWQYYYELDYWGQGTQLTVSS” was “high polyreactivity”; that for “QVQLVESGGGLVQAGGSLRLSCAASGFTFQIYAMGWYRQAPGKERELVAAITWSGGRTYYGDSVKGRFTISRDNAKNTVYLQMNSLKREDTAVYYSNARYTTGSDPGGPGTYGYWGQGTQVTVSS” was “low polyreactivity”.
For “QVQLVESGGGLVQAGGSLRLSCAASGRIFGRYAMGWYRQAPGKERELVAAITSGGRTSYADSVKGRFTISRDNAKNTVYLQMNSLKPEDTAVYYWNVVSRNSIRFDYWGQGTQVTVSS”, the “polyreactivity (PSR sort gate)” value is “high polyreactivity”.
On to “QVQHVESGGGKVQAGGSLRLSCASSGFTIMSYAMGWYRQAPGKERELVAAISRSGGSTYYADSVKGRFTISRDKAKNTVYLQMISLKPEDTAVYYCAARSAFRKQFSRNNYWGQGSQVTVSS”, for which the “polyreactivity (PSR sort gate)” value is reported as “high polyreactivity”.
For the sequence “QVQLVESGGGLVQAGCSLRLSCAASGSIFESYAMGWSRQAPGNERELVAAITSSGDSTYYADSVKGRFTITRDNAKNTVYIQMNSLKPEDTAVYYCANRVPTYISTADWGSRYDYWGQGTQVTVSS”, the “polyreactivity (PSR sort gate)” value is on record as “low polyreactivity”.
With “QVQLVESGGGLVQAGGSLRLSCAASGRIFTWKGMGWYRQAPGKERELVARISSGTRTNYADSVKGRFTISRDNAKNTVYLQMNCLKPEDTAVYYFAAAAKRSDAYHNRRYYWGQGTQVTVSS”, the “polyreactivity (PSR sort gate)” value is on record as “high polyreactivity”.
The value for “QVELVESGGGLGQAGGSLRLSCAASGSTFASNTLGWYRQAPGKEREVVAAITQSGGTTYYADSVKGRFTISRDNAKNTVFLQMNSLKPEDTAVYYDYWGQGTQVTVSS” was “low polyreactivity”.
With “QVQLVESGGGLVQAGGSLRLSCAPSGYIFQAYVMGWYRPAPGKERELVAAITSGGGTYYADSVKGRFTISRDNAKNTVYLQMISLKPEDTAVYYCAARYTQRPRRNYWGQGSQVTVSS” the entry was “high polyreactivity”; with “QVQLVESGGGLVQAGGSLRLSCAASGRTFSSNAKGWYRQAPGKERELVASISFRGGRTYYADSVKGRFTISRDNAKNTVYLQMNSLKPEDTAVYYCVSGTIRTGYGYWGQGTQVTVSS”, “high polyreactivity”.
Take “QVQLVESGGGLVQAGGSLRLSCAASGIIFGRYAMGWYRQAPGKERELVAAINASGGSTYYADSVKGRFTISRDNAKNTVYLQMNSLKPEDTAVYYCATVHVWGFVYVGSGYWGQGTQVTVSS”: the “polyreactivity (PSR sort gate)” value is “high polyreactivity”.
With “HVQLVESGGGLVQAGGSLRIICAASVRIFYLYAMGWYRRAPGKERELVATINSGGSTKYADSVKGRFTISRDNAKNSVYLQRNSLKPEDTAVYYCNAKRWKDYYPYQSWKYGYWGQGTQVTVSS”, the “polyreactivity (PSR sort gate)” value is reported as “high polyreactivity”.
The value for “QVQIEESGGGLVQAGGSLRLSCAASGFTFRWYAMGWSIQAPGKERELVAAIDWSGGSTNYADSVKGRFTISRDNAKNTVYLQMNSLKPEDTAVYYCAAVWRYWYPGFVPYDYWGQGTQVTVSS” was “high polyreactivity”.
Turning to “QVQLVESGGGLVQAGGRLRLSCAASGSIFVIYGMGWYRQAPGKERELVAAISDRGGSTYYADSVKGRFTISRDNAKNTVYLQMNSLKPEDTAVYYCAADRQYRYATRYDYWGQGTQVTVSS”, the “polyreactivity (PSR sort gate)” value is recorded as “low polyreactivity”.
With “QVQLVESGGGLVQAGGSLRLSCAASGITFWYYAMGWYRQAPGKERELVAAITGGDSTNYADSVKGRFTISRDNAKNTVYLQMNSLKPEDTAVYYCNAEGSYEGYDDYWGQGTQVTVSS” the entry was “high polyreactivity”.
With “QVQLVESGGGLVQAGGSLRLSCAASGSIFEAYAMGWYRQAPGKERELVAAITQSGGSTYYADSVKGRFTISRDNAKNTVYLQMNSLKPEDTAVYYCAADFKYRGPSGDYDYWGQGTQVTVSS”, the “polyreactivity (PSR sort gate)” value is listed as “low polyreactivity”.
In the case of “QVQLVESGGGLVQAGGSLRLSCAASGRIFSRYAMGWYRQAPGKERELVAAINKSGGSTYYADSVKGRFTISRDNAKNTVYLQMNSLKPEDTAVYYCNAVYYWYKGDYWGQGSQVTVSS”, the “polyreactivity (PSR sort gate)” value is recorded as “high polyreactivity”.
With “QVQLVESGGGLVQAGGSLRLSCAASGFIFDSYAMGWYRQAPGKERELVAAISYSGGNTYYADSVKGRFTISRDNAKNTVYLQMNSLKPEDTAVYYCAAEWSDSRWWRLWWYGEDDYWGQGTQVTVSS” the entry was “high polyreactivity”; with “QVQLVESGGGLVQAGGSLRLSCAASGFTFWYYAMGWYRQAPGKDRELVASISASGGRTNYADSVKGRFTISRDNAKNTVYLQMNSLKPDDTAVYYCNAASLIAAYGDYYWGQGTQVTVSS”, “high polyreactivity”; with “QVQLVESGGGLVQAGGSLRLSCAASGFTFYRYTMGWYRQAPGKERELVAAITNTDSTNYADSVKGRFTISRDNAKNTVYLQMNSLKPEDTAVYYCNAAYVWYRIFVRRDYWGQGTQVTVSS”, “high polyreactivity”.
With “QVQLVESGGGLVQAGGSLRLSCAASGLIFTRNAMGWYRQAPGKERELVASISNSGGSTYYADSVKGRFTISRDNAKNTVYLQMNSLKPEDTAVYYCAAPTHLHGHGNQNEFYYWGQGTQVTVSS” the entry was “low polyreactivity”; with “QVHLVESGGGLVQAGGSLRLSCAASGSICNPYAMGWYRQAPGKEGELVAAINRGGTSTYYADSVKGRFTISRDNAKNNVYLQMNSLKPEDTAVYYCNADYPYYEDGDTVRDDYWGQGTQVTVSS”, “low polyreactivity”; with “QVQLVESGGGLVQAGGSLRLSCAASGSTFTPYAMGWYRQAPAKERELVAAITSGGPTNYADSVKGRFTISRDNAKNTVYLQMNSLKPEDTAVYYCNAEYLYWWEIYDYWGQGNQVTVSS”, “high polyreactivity”.
Regarding “QVQLVESGGGLVQAGGSLRLSSAASGLTIAPYARGWYRPAPGKVWELVAAITQRGSSTYYADSVKGRFTISRDNAKNTVYLQMNSLKRVDTAVYYCAARYRARYYWGQGTQVTVSS”, the “polyreactivity (PSR sort gate)” value is listed as “high polyreactivity”.
The value for “QVQLVESGGGLVQAGGSLLLSCAASGSTFSYYAMGWYRPAPGKERELVATITKRGGSTYYADSVKGRFTISRDNAKNTFYVQLNSLKPEDTAVYDCAASYPSRWRATYPTGFEYWGQGTQVTVSS” was “high polyreactivity”.
The value for “QVQLVESGGGLVQAGGSLRLSCAASGRTFAANTMGWYRQAPGKERELVAAISSSGGSTSYADSVKGRFTISRDNAKNTVYLQMNSLKPEDTAVYYCNTLLRRDFNYWGQGTQVTVSS” was “high polyreactivity”; that for “QVQLVESGGGLVQAGGSLRLSCAASGITFGYYAMGWYRQAPGKERELVATITDGGGTKYADSVKGRFTISRDNAKNTVYLQINSLKPEDTAVYYCAAGLRHVYATEYDYWGQGTQVTVSS” was “low polyreactivity”; that for “QVQLVESGGGLVQAGGSLRLSCAASGRTFNRYAMGWYRQAPGKERELVAAISYGGGRTYYADSVKGRFTISRDNAKNTVYLQMYSLKPEDTAVYYCNAVFGYQSPGGYDYWGQGTQVTVSS” was “high polyreactivity”.
With “QVQLVESGGGLVQAGGSLRLSCAASGRISESNDMGWSRQAPWKERELVAAISSSGGSTYYADSVKGRFTISRDNAKNTVYLQMNSLKPEDTAVYYCNAVYYRTVLKIGVYEYDYWGQGTQVTVSS” the entry was “low polyreactivity”.
In the case of “QVQLVESGGGLVQAGGSLRLSCAASGITFLPYAMGWYRPEPGKERELVAAITRGGGSTYADSVKGRFTISRDNAKNTVYLQMNSLKPEDTAVYYCNAKGRGWTAQYDYWGQGTQVTVSS”, the “polyreactivity (PSR sort gate)” value is “low polyreactivity”.
“QVQLVESGGGLVQAGGSLRLSCAASGRTFIPYAMGWYRQAPGKERELVATISRSGGSTYYADSVKGRFTISRDNAKNTVYLQMNSLKPEDSAVYYCAAQWVRKSGREGYWGQGTQVTVSS”: the “polyreactivity (PSR sort gate)” value is “high polyreactivity”.
With “QVQLVESGGGLVQAGGSLRLSCAASGSTCGTYAMGWYRQAPGKERELVATISLSGGSTYYADSVKGRFTISRDNAKNTVYLQMNSLKPEDTAVYYCTVKSSYSEYDYWGQGTQVTVSS” the entry was “low polyreactivity”.
The value for “QVQLVESGGGLVQAGGSLRLSCAASGSIFKGYAMGRYIQAPGKERELVAAISSSGGSTYYADSVKGRFTISRDNAKNTVYLQMNSLKPEDTAVYYCNTDRYYTYDYLGQGTQVTVSS” was “low polyreactivity”; that for “QVQLVESGGGLVQAGGSLRLSCAASGLIFNNNAMGWYRQAPGKERELVAAISYRGGSTYYADSVKGRFTISRDNAKNTVYLQMNSLKPEDTAVYYCAARKISKYDYWGQGTQVTVSS” was “high polyreactivity”; that for “QVQLVESGGGLVQAGGSLRLSCAASGRTFGTNAMGWYRHAPGKERELVAANSRRGGSTYYAESVKGRFTISRDNEKNTVYLQMNSLKPEDTAVYYCAKTIGLKHEDEYWGQGTQVTVSS” was “low polyreactivity”.
In the case of “QVQLVESGGRLVQAGGSLRLSCAASGLTFSSYAMGWYRQAPGKERQLVAAISRGGGSTYYADSVKGRFTISRDNAKNTGYLQMNSLKPEDTAVYYCAADSGFWWLYDYWGQGTHVTVSS”, the “polyreactivity (PSR sort gate)” value is given as “high polyreactivity”.
Consider “QVQLVESGGGLVQAGGSLRLSCAASGSTFSYMGWYRQAPGKERELVAAISYRGGRTYYADSVKGRFTISRDNAKNTVYLQMNSLTPEDTAVYYCNADGGRTYYSRYDYWGQGTQVTVSS”, for which the “polyreactivity (PSR sort gate)” value was “low polyreactivity”.
As for “QVQLEESGGVLVQAGGSHRLRCAASGRTIGWYAMGWYRQAPRKERELVAAIRSSTGSTYYADSVKGRFTISRDNAKNTVFLQMNSLKPEDTAVYDCAKRRADYSPRYGYWGQGTQVTVSS”, the “polyreactivity (PSR sort gate)” value is “high polyreactivity”.
On to “QVQLVESGGGLVQAGGSLRLSCAAYGRTFLYNAMGWYRQAPGKERELVAAISSRGARTYYADSVKGRFTISRDNAKNTVYLQMNSLKPEDTAVYYCATDSYRYDGIQYLYEYYYWGQGTQVTVSS”, for which the “polyreactivity (PSR sort gate)” value is “high polyreactivity”.
“QVHHVESGGGLVQAGGSLRLSCAASGRIFYPYAMGWYRQAPGKERELVASITSGGGTYYADSVKGRFTISRDNAKNTVYLQMNSLKPEDTAVYYCAAKYYTSWIRYDYWGQGTQVTVSS”: the “polyreactivity (PSR sort gate)” value was “low polyreactivity”.

The values are drawn from the nanobody polyreactivity screen of Harvey et al. (2022).
